The values below come from patent US20110300138A1 (published 2011).

For experiment [1], the target named is TSH receptor (TSHR), full length human, coated on tubes (human) (UniProt P16473). Nature of the experiment: inhibition of 125I-K1-18 IgG binding to TSHR coated tubes; competitor 125I-K1-18 IgG; negative control sample at 0.01 µg/mL in assay buffer.
Experiment [2] has as its target human TSH receptor (full length) coated on ELISA plate wells (human) (UniProt P16473). Nature of the experiment: TSH-biotin binding inhibition ELISA, TSHR coated wells; 1 µg/mL in assay buffer; negative control MAb.
The target of experiment [3] is TSH receptor (TSHR), full length human, coated on tubes (human) (UniProt P16473). Nature of the experiment: inhibition of 125I-TSH binding to TSHR coated tubes; 0.01 µg/mL, diluted in assay buffer; mean of duplicates.
For experiment [4], the target named is TSH receptor (full length human TSHR) (human) (UniProt P16473). Description: competition ELISA: inhibition of M22 Fab-peroxidase (competitor) binding to TSHR coated wells; negative control at 100 µg/mL diluted in HBD serum pool.
The target in experiment [5] is TSHR (thyroid stimulating hormone receptor), full length human (human) (UniProt P16473). Description: negative control; competitor ^125I-K1-70 IgG, TSHR coated tubes; 10 µg/mL in assay buffer.
The target in experiment [6] is human thyroid stimulating hormone receptor (TSHR), full length (human) (UniProt P16473). Nature of the experiment: 125I-K1-70 Fab (competitor) binding to TSHR coated tubes; negative control MAb 0.01 µg/mL in assay buffer.
Experiment [7] has as its target TSH receptor (full length human TSHR) (human) (UniProt P16473). Description: competition ELISA: inhibition of M22 Fab-peroxidase (competitor) binding to TSHR coated wells; negative control at 10 µg/mL diluted in assay buffer.
Experiment [8] has as its target TSH receptor (TSHR) coated on tubes (human) (UniProt P16473). Nature of the experiment: inhibition of 125I-K1-70 IgG binding to TSHR coated tubes; negative control 100 µg/mL in assay buffer.
For experiment [9], the target named is human TSH receptor (full length) coated on ELISA plate wells (human) (UniProt P16473). Nature of the experiment: TSH-biotin binding inhibition ELISA, TSHR coated wells; 10 µg/mL in assay buffer + 100 µg/mL 5B3 IgG; negative control MAb.
The target of experiment [10] is TSH receptor (full length human TSHR) coated on tubes (human) (UniProt P16473). Nature of the experiment: 125I-TSH binding inhibition read against NIBSC 90/672; mean over 10, 30 and 100 ng/mL, in assay buffer.
Experiment [11] has as its target TSHR with Phe134 mutated to Ala, expressed in CHO cells (human) (UniProt P16473). Description: cell-based or functional assay.
Experiment [12] deals with TSHR with Phe130 mutated to Ala, expressed in CHO cells (human) (UniProt P16473). Description: cell-based or functional assay.
Experiment [13] deals with wild type TSHR expressed in CHO cells (human) (UniProt P16473). Nature of the experiment: cell-based or functional assay.
Experiment [14] addresses thyroid stimulating hormone receptor (TSHR), full length human TSHR (human) (UniProt P16473). Description: TSH-biotin competition ELISA, TSHR coated wells; 0.1 µg/mL in assay buffer.
Experiment [15] deals with TSHR (full length) coated on tubes (human) (UniProt P16473). Nature of the experiment: inhibition of 125I-K1-18 Fab (competitor) binding to TSHR coated tubes; test sample 100 µg/mL in assay buffer.
Experiment [16] has as its target thyroid stimulating hormone receptor (TSHR), full length human TSHR (human) (UniProt P16473). Nature of the experiment: TSH-biotin competition ELISA, TSHR coated wells; 10 µg/mL in HBD serum.
Experiment [17] concerns the target TSHR (thyroid stimulating hormone receptor), full length human (human) (UniProt P16473). Nature of the experiment: competitor ^125I-K1-70 IgG, TSHR coated tubes; 100 µg/mL in HBD.
Experiment [18] addresses TSH receptor (TSHR), full length human, coated on tubes (human) (UniProt P16473). Description: inhibition of 125I-TSH binding to TSHR coated tubes; 0.001 µg/mL, diluted in assay buffer.
Experiment [19] concerns the target TSH receptor (TSHR) coated on tubes (human) (UniProt P16473). Nature of the experiment: inhibition of 125I-K1-70 IgG binding to TSHR coated tubes; sample 0.1 µg/mL in assay buffer.
The target in experiment [20] is TSH receptor (TSHR), full length human, coated on tubes (human) (UniProt P16473). Description: inhibition of 125I-K1-18 IgG (competitor) binding to TSHR coated tubes; test sample at 1 µg/mL in HBD serum pool; mean of duplicate.
Experiment [21] has the same target. Description: inhibition of 125I-K1-18 IgG (competitor) binding to TSHR coated tubes; test sample at 0.1 µg/mL in HBD serum pool.
The target of experiment [22] is human thyroid stimulating hormone receptor (TSHR), full length (human) (UniProt P16473). Description: 125I-K1-18 Fab competition, TSHR coated tubes; 1 µg/mL in assay buffer.
In experiment [23] the target is thyroid stimulating hormone receptor (TSHR), full length, coated on tubes (human) (UniProt P16473). Nature of the experiment: inhibition of 125I-TSH binding, TSHR coated tubes; antibody 0.01 µg/mL in HBD serum pool.
Experiment [24] has as its target TSH receptor (TSHR) coated on tubes (human) (UniProt P16473). Nature of the experiment: inhibition of 125I-K1-70 IgG binding to TSHR coated tubes; sample 100 µg/mL in assay buffer.
Experiment [25] deals with thyroid stimulating hormone receptor (full length human TSHR) (human) (UniProt P16473). Nature of the experiment: ELISA, inhibition of TSH-biotin binding to TSHR coated wells; 0.1 µg/mL, diluted in assay buffer.
Experiment [26] addresses human TSH receptor (full length) coated on ELISA plate wells (human) (UniProt P16473). Description: TSH-biotin binding inhibition ELISA, TSHR coated wells; 100 µg/mL in assay buffer.

Take 5B3 IgG (antibody): the Inhibition of binding (%) in experiment [1] is -4.2%; in experiment [3], -5.8%; in experiment [4], 3.8%; in experiment [5], 2.3%; in [6], -1.7%; in experiment [7], 2.4%. In addition, in experiment [8], the Inhibition of binding (%) was 15.2%. For the same molecule, the % inhibition of TSH-biotin binding is -1% in experiment [2] and -4.8% in experiment [9].

Turning to M22 IgG (antibody), the mean units/mg in experiment [10] was found to be 266 units/mg.

Turning to TSH (ligand), in experiment [11], the Cyclic AMP produced, TSH 0.01 ng/mL, mutated TSHR is 4.73 pmol/mL; the Cyclic AMP produced, TSH 0.03 ng/mL, mutated TSHR is 6.05 pmol/mL; the Cyclic AMP produced, TSH 0.1 ng/mL, mutated TSHR was determined as 12.7 pmol/mL; the Cyclic AMP produced, TSH 0.3 ng/mL, mutated TSHR worked out at 27.3 pmol/mL. Also, in [11], the Cyclic AMP produced, TSH 1 ng/mL, mutated TSHR was 53.7 pmol/mL; the Cyclic AMP produced, TSH 3 ng/mL, mutated TSHR turned out to be 61.5 pmol/mL; the Mutated/Wild type (%), TSH 0.01 ng/mL was 189%; the Mutated/Wild type (%), TSH 0.03 ng/mL was 141%. In [11], this molecule yielded a Mutated/Wild type (%), TSH 0.1 ng/mL of 120%; a Mutated/Wild type (%), TSH 0.3 ng/mL of 94%; a Mutated/Wild type (%), TSH 1 ng/mL of 102%; a Mutated/Wild type (%), TSH 3 ng/mL of 101%. In experiment [12], this molecule gave a % inhibition of TSH stimulation; TSH (2) of 0%, a Cyclic AMP produced; TSH 3 ng/mL of 121 pmol/mL, a Cyclic AMP produced; TSH (2) of 95.4 pmol/mL and a Mutated/wild type (%) of cyclic AMP produced; TSH 3 ng/mL of 152%. Further, in experiment [12], the Mutated/wild type (%) of cyclic AMP produced; TSH (2) came out at 107%. Moreover, in experiment [13], the % inhibition of TSH stimulation; TSH (2) was found to be 0%, the Cyclic AMP produced; TSH 3 ng/mL was found to be 79.4 pmol/mL and the Cyclic AMP produced; TSH (2) is 89.1 pmol/mL.

Take 9D33 IgG (antibody): the Inhibition of binding (%) is 59.7% in experiment [14], 81.5% in experiment [15], 83.2% in experiment [16] and 51.1% in experiment [17].

B1: 5C9 IgG (antibody, from another filing, V domains shown)
VH: EVQLVESGGGLIQPGGSLRLSCAASGFTVSSNYMSWVRQAPGKGLEWVSVTYSGGSTSYADSVKGRFTISRDNSKNTLYLQMNSLRAEDTAVYYCARGGRYCSSISCYARSGCDYWGQGTLVTVSS
VL: AIQMTQSPSSLSASVGDRVTITCRASQSISNYLNWYQQKPGKAPKLLIYAASSLQSGVPSRFSGSGSGTDFTLTISSLQPEDFATYYCQQSYSSPSTTFGQGTKLEIK
As to B1, the Inhibition of binding (%) in experiment [18] is -11.2%; in [19] it was 24.6%; in experiment [20], 26.8%; in experiment [21], 21.3%; in experiment [22] it was 52.5%; in experiment [23] it was 4.1%. The Inhibition of binding (%) amounted to 93.3% in experiment [24] and 26.1% in experiment [25]. For the same molecule, the % inhibition of TSH-biotin binding in [26] is 91.2%.
